Results published in paper PMC3799435, “Dissecting the interactions of SERRATE with RNA and DICER-LIKE 1 in Arabidopsis microRNA precursor processing” (Nucleic Acids Research, 2013).

Columns and labels:
[1] = biological target: T1, SE1-701 (Arabidopsis thaliana, UniProt Q9ZVD0 1-701, del702-720); assay: SPR; 50 mM NaCl, 20 nM; as wild-type SE; SPR (Biacore T100): 20 mM Tris-HCl pH 7.0, 50 or 150 mM NaCl, 2 mM β-ME (0.005% P20 for SE variants); proteins 42-43 nM (Fig 2E), SE 20 nM (Fig 4), 16 nM DCL1 for complex; temperature not stated; conditions: protein: recombinant; tags: N-terminal His6; vector also has inserted myc and Strep-tag II; label: 5'-biotin on strand 1; fork: 40 bp duplex; 20-nt 3' tail of strand 1 and 20-nt 5' tail of strand 2 unpaired; other end blunt
T1 sequence: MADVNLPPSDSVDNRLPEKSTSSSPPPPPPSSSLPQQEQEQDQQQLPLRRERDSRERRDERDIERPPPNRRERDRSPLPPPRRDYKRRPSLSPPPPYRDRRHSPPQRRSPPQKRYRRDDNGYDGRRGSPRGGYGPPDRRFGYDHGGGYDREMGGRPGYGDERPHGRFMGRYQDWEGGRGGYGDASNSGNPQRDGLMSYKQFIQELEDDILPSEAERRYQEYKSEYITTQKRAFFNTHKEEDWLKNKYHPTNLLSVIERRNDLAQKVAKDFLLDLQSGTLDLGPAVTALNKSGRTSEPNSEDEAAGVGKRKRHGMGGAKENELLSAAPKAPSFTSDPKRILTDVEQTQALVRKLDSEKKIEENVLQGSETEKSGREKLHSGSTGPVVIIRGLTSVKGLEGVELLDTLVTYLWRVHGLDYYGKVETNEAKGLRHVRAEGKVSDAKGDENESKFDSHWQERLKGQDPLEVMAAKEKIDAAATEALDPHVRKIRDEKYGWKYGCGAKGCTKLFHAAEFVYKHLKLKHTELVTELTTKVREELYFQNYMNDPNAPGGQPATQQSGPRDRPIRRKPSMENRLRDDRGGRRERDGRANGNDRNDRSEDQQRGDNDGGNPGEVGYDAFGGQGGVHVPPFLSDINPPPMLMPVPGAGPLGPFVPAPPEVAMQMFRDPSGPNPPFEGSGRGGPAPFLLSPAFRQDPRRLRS

[2] = biological target: DCL1;SE143-720 (Arabidopsis thaliana;Arabidopsis …, UniProt Q9SP32;Q9ZVD0 1-1909;143-720, |del1-142); assay: SPR; SE143-720 injected on preformed DCL1/RNA complex, 50 mM NaCl; SPR (Biacore T100): 20 mM Tris-HCl pH 7.0, 50 or 150 mM NaCl, 2 mM β-ME (0.005% P20 for SE variants); proteins 42-43 nM (Fig 2E), SE 20 nM (Fig 4), 16 nM DCL1 for complex; temperature not stated; conditions: protein: recombinant;recombinant; tags: none (His6-StrepII-SUMOstar removed);N-terminal His6; vector also has inserted myc and Strep-tag II; label: 5'-biotin on strand 1; fork: 40 bp duplex; 20-nt 3' tail of strand 1 and 20-nt 5' tail of strand 2 unpaired; other end blunt
DCL1;SE143-720, sequence (Q9SP32 whole entry, stated change not applied, one chain of several): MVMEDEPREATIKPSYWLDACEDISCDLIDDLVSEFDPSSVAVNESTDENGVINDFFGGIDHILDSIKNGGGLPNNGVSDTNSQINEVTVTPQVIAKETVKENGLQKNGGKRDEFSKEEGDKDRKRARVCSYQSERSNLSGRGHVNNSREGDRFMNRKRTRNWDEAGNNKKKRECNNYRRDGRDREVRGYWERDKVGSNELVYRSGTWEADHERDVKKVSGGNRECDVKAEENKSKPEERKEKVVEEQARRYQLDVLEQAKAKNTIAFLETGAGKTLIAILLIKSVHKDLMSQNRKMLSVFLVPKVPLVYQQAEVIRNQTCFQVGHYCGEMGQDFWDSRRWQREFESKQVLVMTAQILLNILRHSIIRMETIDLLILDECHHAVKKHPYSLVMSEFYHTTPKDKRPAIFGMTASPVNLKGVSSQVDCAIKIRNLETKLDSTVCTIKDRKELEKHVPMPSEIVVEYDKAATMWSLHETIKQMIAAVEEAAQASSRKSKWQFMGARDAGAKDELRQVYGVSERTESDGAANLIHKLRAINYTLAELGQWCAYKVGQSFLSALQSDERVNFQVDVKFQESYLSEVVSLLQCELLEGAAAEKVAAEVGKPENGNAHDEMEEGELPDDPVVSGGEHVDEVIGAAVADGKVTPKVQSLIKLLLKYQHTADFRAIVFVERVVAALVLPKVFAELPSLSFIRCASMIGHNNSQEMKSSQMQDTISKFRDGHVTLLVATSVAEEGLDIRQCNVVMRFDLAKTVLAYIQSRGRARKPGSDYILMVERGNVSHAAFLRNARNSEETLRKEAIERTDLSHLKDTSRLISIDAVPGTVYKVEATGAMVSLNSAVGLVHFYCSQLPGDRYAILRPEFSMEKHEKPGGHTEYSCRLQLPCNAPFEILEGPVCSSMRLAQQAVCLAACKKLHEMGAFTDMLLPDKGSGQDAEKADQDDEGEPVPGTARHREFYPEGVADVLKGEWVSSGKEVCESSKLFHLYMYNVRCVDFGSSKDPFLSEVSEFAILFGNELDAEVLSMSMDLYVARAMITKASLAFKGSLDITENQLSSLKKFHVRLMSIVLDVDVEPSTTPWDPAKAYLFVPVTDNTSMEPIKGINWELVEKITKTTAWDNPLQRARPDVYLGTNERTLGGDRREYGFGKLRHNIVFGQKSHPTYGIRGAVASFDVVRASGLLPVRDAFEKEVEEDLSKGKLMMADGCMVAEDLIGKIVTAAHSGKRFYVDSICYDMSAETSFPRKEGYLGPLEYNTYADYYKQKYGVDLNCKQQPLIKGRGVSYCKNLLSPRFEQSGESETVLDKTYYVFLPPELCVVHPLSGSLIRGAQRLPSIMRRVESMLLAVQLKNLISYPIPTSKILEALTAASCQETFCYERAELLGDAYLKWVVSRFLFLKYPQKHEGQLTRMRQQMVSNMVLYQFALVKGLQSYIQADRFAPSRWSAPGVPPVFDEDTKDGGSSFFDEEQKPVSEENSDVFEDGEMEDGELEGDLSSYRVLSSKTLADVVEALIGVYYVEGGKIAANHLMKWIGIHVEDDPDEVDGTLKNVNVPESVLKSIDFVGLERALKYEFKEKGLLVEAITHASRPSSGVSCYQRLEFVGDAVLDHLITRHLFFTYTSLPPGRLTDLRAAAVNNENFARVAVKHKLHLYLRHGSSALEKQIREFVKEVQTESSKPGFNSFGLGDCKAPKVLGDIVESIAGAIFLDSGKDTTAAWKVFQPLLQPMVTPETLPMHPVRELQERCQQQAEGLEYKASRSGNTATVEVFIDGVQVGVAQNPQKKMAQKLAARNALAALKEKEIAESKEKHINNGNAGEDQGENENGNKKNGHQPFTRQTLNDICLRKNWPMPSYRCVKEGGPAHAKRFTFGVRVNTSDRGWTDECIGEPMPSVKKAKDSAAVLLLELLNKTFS

[3] = biological target: T2, SE (untagged) (Arabidopsis thaliana, UniProt Q9ZVD0 1-720); assay: SPR; 50 mM NaCl; weaker than DCL1, rapid dissociation; SPR (Biacore T100): 20 mM Tris-HCl pH 7.0, 50 or 150 mM NaCl, 2 mM β-ME (0.005% P20 for SE variants); proteins 42-43 nM (Fig 2E), SE 20 nM (Fig 4), 16 nM DCL1 for complex; temperature not stated; conditions: protein: recombinant; tags: none (His6-StrepII-SUMOstar removed); label: 5'-biotin on strand 1; fork: 40 bp duplex; 20-nt 3' tail of strand 1 and 20-nt 5' tail of strand 2 unpaired; other end blunt
T2 sequence: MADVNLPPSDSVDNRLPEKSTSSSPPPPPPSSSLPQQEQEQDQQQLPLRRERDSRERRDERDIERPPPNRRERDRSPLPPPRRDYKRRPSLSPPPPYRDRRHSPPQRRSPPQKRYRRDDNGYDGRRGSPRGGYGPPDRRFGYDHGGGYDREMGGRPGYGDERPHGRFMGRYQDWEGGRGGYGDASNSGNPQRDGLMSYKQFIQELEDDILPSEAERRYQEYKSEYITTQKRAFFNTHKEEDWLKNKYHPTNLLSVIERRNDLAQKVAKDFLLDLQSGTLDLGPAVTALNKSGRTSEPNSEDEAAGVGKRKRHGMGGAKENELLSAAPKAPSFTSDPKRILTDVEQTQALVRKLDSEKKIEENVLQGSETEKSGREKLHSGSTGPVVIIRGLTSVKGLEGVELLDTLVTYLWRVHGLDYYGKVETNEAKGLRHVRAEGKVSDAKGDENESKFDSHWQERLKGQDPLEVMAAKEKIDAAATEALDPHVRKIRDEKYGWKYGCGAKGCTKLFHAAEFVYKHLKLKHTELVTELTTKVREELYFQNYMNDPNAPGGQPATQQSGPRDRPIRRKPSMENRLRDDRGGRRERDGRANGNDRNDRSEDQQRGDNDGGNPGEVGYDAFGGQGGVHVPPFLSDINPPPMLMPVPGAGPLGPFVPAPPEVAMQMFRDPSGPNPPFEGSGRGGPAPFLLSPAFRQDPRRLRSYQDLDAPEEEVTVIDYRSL

[4] = biological target: T3, SE (His-tagged) (Arabidopsis thaliana, UniProt Q9ZVD0 1-720); assay: SPR; 50 mM NaCl, 20 nM protein; SPR (Biacore T100): 20 mM Tris-HCl pH 7.0, 50 or 150 mM NaCl, 2 mM β-ME (0.005% P20 for SE variants); proteins 42-43 nM (Fig 2E), SE 20 nM (Fig 4), 16 nM DCL1 for complex; temperature not stated; conditions: protein: recombinant; tags: N-terminal His6; vector also has inserted myc and Strep-tag II; label: 5'-biotin on strand 1; fork: 40 bp duplex; 20-nt 3' tail of strand 1 and 20-nt 5' tail of strand 2 unpaired; other end blunt
T3 sequence: T2 sequence

B1: forked-RNA (dsRNA)
RNA 1: CAACCCAAGAUAGAUCAUGCAGGCAGCUUCAUCAGAUGCCGCUCCCUCUUUUUUUCUCUA
RNA 2: GCUCCCUCUUUUUUUCUCUAGGCAUCUGAUGAAGCUGCCUGCAUGAUCUAUCUUGGGUUG
[1]
  binding result: binds
[2]
  binding signal: 2 fold less RUmax vs wild-type SE
[3]
  binding result: binds
[4]
  binding result: binds
